This experiment concerns the target Aβ13-21 peptide (peptide 13). Briefly: ELISA, biotinylated peptide (Mimotopes protocol).

As to Control IgG (antibody), the O.D was found to be 0.171 O.D.
